Molecular target: GST-p35-C/EBPβ
Assay: pull-down

B1: Elk-1 (wild type), in vitro translated (natural protein)
chain: MDPSVTLWQFLLQLLREQGNGHIISWTSRDGGEFKLVDAEEVARLWGLRKNKTNMNYDKLSRALRYYYDKNIIRKVSGQKFVYKFVSYPEVAGCSTEDCPPQPEVSVTSTMPNVAPAAIHAAPGDTVSGKPGTPKGAGMAGPGGLARSSRNEYMRSGLYSTFTIQSLQPQPPPHPRPAVVLPSAAPAGAAAPPSGSRSTSPSPLEACLEAEEAGLPLQVILTPPEAPNLKSEELNVEPGLGRALPPEVKVEGPKEELEVAGERGFVPETTKAEPEVPPQEGVPARLPAVVMDTAGQAGGHAASSPEISQPQKGRKPRDLELPLSPSLLGGPGPERTPGSGSGSGLQAPGPALTPSLLPTHTLTPVLLTPSSLPPSIHFWSTLSPIAPRSPAKLSFQFPSSGSAQVHIPSISVDGLSTPVVLSPGPQKP
modifications: labeled with [35S] methionine
  percent of input retained on the beads: 35 to 45%

Source: publication PMC29063
